Experimental data: patent US11938195B2, “Upconversion nanoparticle peptide conjugates” (BP InnoMed Limited, priority 2021, dated 2024)
Where no end group is shown, it is not given here. [ ]: non-standard residue; d: D form. Ahx = NCCCCCC(=O)O

Experiments:
[1] = test system: EBV-negative HeLa cells; assay: MTT cytotoxicity assay, HeLa cells; assay type: cell-based, human; parameters: unit not given here; conditions: 24 h incubation
[2] = test system: EBV-negative MRC-5 cells; assay: MTT cytotoxicity assay, MRC-5 cells; assay type: cell-based, human; parameters: unit not given here; conditions: 24 h incubation
[3] = target: EBNA1 (DNA-binding domain fragment of a.a.468-607) (Epstein-Barr virus, UniProt P03211); assay: EBNA1 dimerization/oligomerization inhibition assay; assay type: biochemical; conditions: 0.3 mg/mL nanoprobe, 90 mg EBNA1, DSS crosslinking, SDS gel
Experimental: EBNA1 dimerization/oligomerization inhibition assays were performed to reveal the ability of interrupting EBNA1 dimerization/oligomerization in the presence of the previous nanoprobe UCNP-P4 and the nanoplatforms in situ.
(conc.: 0.3 mg/mL) at 4° C. overnight. Then, 2 mM disuccinimidyl suberate (DSS) was added to allow the samples to undergo crosslinking reaction at room temperature for 30 min. The samples were run and separated on an SDS-denaturing gel and proteins were detected using Coomassie Blue staining. PBS buffer was used as control group.

[4] = test system: HeLa derived xenograft; conditions: 12.5 mg/kg i.v.; 3-36 h after injection; 980 nm
Experimental: (§1) In vivo upconversion luminescence imaging was performed using UCNP-P5 under 980 nm excitation (laser power: 3 W). C666-tumor-bearing and HeLa-tumor-bearing nude mice were injected with UCNP-P5 through the tail vein.
(§2) In vivo upconversion luminescence imaging: C666 and HeLa cells (10^6 cells) were inoculated subcutaneously in BALB/c female nude mice (6 weeks). When the tumors reached 0.2-0.3 cm in diameter, the C666-tumor-bearing and HeLa-tumor-bearing mice were anesthetized and injected intravenously with UCNP-P5 (150 μl, 12.5 mg/kg per mouse). The in vivo upconversion luminescence images were recorded at different time points (3 h, 6 h, 12 h, 24 h, 36 h).

[5] = test system: C666-tumor; conditions: 12.5 mg/kg i.v.; 3-36 h after injection; 980 nm
Experimental: as §1, §2

[6] = test system: p65; assay: Western blot of p65 (NF-κB) in C666 cells; assay type: cell-based
Source text: NF-κB signaling pathway is critical for the survival of EBV-infected tumor cells. Here we investigated if our nanoprobes could affect this oncogenic pathway. EBV-positive LCL3 and C666 cells were used as models, EBV-negative HK1 cells were used as control and Western blot was used to analyze the protein expression of p65, a major transcription factor in the NF-κB family. […] GAPDH and Histone are regarded as internal standards in cytosolic and nuclear fractions, respectively. […] This is consistent with the cellular uptake results.
Western blotting: EBV-positive C666, LCL3 and EBV-negative HK1 cell pellets were treated with phosphatase and protease inhibitors at 0-4° C. for 30 min. The total protein concentrations were calculated by protein absorbance. The protein was resolved by sodium dodecyl sulfate-polyacrylamide gel electrophoresis (SDS-PAGE) and transferred to cellulose filter membranes. The membranes were blocked with 3% BSA in Tris-buffered saline in 0.1% Tween 20 (TBST) for 1 h with gentle shaking and subsequently incubated with primary antibodies (1:1000) in 3% BSA in TBST at 4° C. for overnight. After rinsing with TBST buffer three times, the blots were then incubated with corresponding secondary anti-rabbit antibody (1:6000) for 1 h. After that, the blots were rinsed again with 3% BSA in TBST for 1 h shaking at room temperature. Lastly, the density of bands was determined by image analysis system after washing with TBST buffer three times.

[7] = test system: LMP1-positive LCL3 cells; assay: MTT cytotoxicity assay, LCL3 cells; assay type: cell-based; conditions: 24 h incubation
Experimental: The inhibitory effects of the novel nanoprobes on both EBV-infected cancer cells and non-EBV-infected cancer cells were investigated by MTT assays to test the cell viability. The cytotoxic assays were performed in EBV-positive C666 and NPC43 cells, LMP1-positive LCL3 and Raji cells, and the LMP1-positive and -negative HK1 cell pair. HK1, MRC-5 and HeLa cell lines are EBV-negative and they serve as negative controls. […] In addition, UCNP-P4, EBNA1-specific peptide coated UCNPs was included as control group, so the ability of inhibiting EBV-related cancer cells can be directly compared with UCNP-Pn [n=5, 6 and 7 (SEQ ID NO: 5, 6, 7)].
In vitro cytotoxic assays: The cytotoxicity of our nanoprobes was determined by MTT reduction assay. The cells (3×10^3 per well) were seeded onto 96-well plates and incubated overnight, followed by treatment with Pn [n=5, 6 and 7 (SEQ ID NO: 5, 6, 7)], UCNP, UCNP-Pn [n=5, 6 and 7 (SEQ ID NO: 5, 6, 7)] and UCNP-P4 individually at 37° C., 5% CO2 for 24 h in dark. The cell monolayers were rinsed with PBS and 50 μL of MTT, 3-(4,5-dimethylthiazol-2-yl)-2,5-diphenyltetrazolium bromide solution (0.5 mg mL^−1) was added per well and the cells were further incubated for 3 h at 37° C. […] The absorptions of the formazan crystal solutions at 540 nm and 690 nm were measured using a dual-wavelength Labsystem Multiskan microplate reader (Merck Eurolab).

[8] = test system: EBV- and LMP1-negative HK1 cells; assay: MTT cytotoxicity assay, HK1 cells; assay type: cell-based; parameters: unit not given here; conditions: 24 h incubation
[9] = test system: LCL3 cells; assay: Cellular uptake by ICP-MS, LCL3; assay type: cell-based
Experimental: Subsequently, the quantitative distribution and uptake efficiency of nanoprobes in vitro in C666, HK1, HK1-LMP1 and LCL3 cells lines were monitored and investigated by evaluating the lanthanide content originating from the nanoprobes using inductively coupled plasma mass spectrometry (ICP-MS).
After co-incubation, the cell culture medium containing the nanoprobes was removed, and the exposed cells were further rinsed with 1 mL PBS three times. After that, the cells were trypsinized and re-dispersed in 1 mL cell medium. The cells were collected by centrifugation at 1500 rpm, and the cell pellet was digested in 100 μL concentrated HNO3 (69%) at room temperature for 3 h. Then, each cell pellet in centrifuge tube was filled up to 10 mL with 1% HNO3. The cellular uptake of all the nanoprobes was recorded via an Agilent 7500 series ICP-MS instrument. All ICP experiments were performed three times, and the values of Gd concentration (ppm) obtained were calculated and averaged.

[10] = Peptide release from nanoprobes under various pH buffers (UV-vis absorbance); assay type: physicochemical; conditions: 24 h in buffer, 0.5 mg/mL
Source text: The stability and capability of cleavage of the pH linker were also studied. […] More importantly, TEM images of UCNP-P5 at different pH buffers were observed and investigated in FIG. 1, providing direct evidence on pH-responsive peptide release from UCNP. […]

Chain of EBNA1 (DNA-binding domain fragment of a.a.468-607) (P03211 468-607): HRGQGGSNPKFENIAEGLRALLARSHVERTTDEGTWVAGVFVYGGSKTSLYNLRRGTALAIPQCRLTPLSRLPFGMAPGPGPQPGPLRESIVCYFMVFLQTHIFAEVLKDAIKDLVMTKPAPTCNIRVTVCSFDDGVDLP

Question: For “UCNP-P5: UCNP is NaGdF4:Yb^3+, Er^3+@NaGdF4 and plurality of polypeptides is Ahx-YFMVFGGRrRKGGFWLY (SEQ ID NO: 5), pH-sensitive imine linker ([Ahx]YFMVFGGR[dR]RKGGFWLY; also: conjugated to UCNP NaGdF4:Yb3+,Er3+@NaGdF4 via pH-sensitive imine linker)”, which “IC50 in HeLa” value [1] is on record?
Answer: Its value is 1086.

Question: And the “IC50 in MRC-5” value [2]?
Answer: Its value is 1280.

Question: What about the “Inhibition of EBNA1 dimerization/oligomerization” value [3] of the same substance?
Answer: The value was “eradicate all 90 mg EBNA1 dimers and oligomers”.

Question: And the “Upconversion luminescence signal from the tumor site” value [4]?
Answer: The value was “only observed at 3 h after the injection”.

Question: And the “Upconversion luminescence signal from the tumor site” value [5]?
Answer: The value was “persisted even 24 h after the injection”.

Question: What about the “Decreased p65 expression, nuclear fraction” value [6] of the same substance?
Answer: Its value is 89%.

Question: And the “IC50 in LCL3” value [7]?
Answer: The value was 19 mg/mL.

Question: And the “IC50 in HK1” value [8]?
Answer: Its value is 1027.

Question: What about the “Cellular uptake (Gd amount by ICP-MS)” value ([9]; 50 μg/mL) of the same substance?
Answer: Its value is “largest amount of cellular uptake”.

Question: What about the “Gd amount relative to UCNP-P4” value ([9]; 24 h incubation) of the same substance?
Answer: The value was “over twice”.

Question: What about the Peptide release rate ([10]; pH 5.0) of the same substance?
Answer: The Peptide release rate was 84.6%.

Question: What about the Peptide release rate ([10]; pH 5.5) of the same substance?
Answer: The Peptide release rate was 56.1%.

Question: What about the Peptide release rate ([10]; pH 6.0) of the same substance?
Answer: Its Peptide release rate is 34.8%.

Question: What about the Peptide release rate ([10]; pH 6.5) of the same substance?
Answer: The Peptide release rate was 20.9%.

Question: And the Peptide release rate ([10]; pH 7.0)?
Answer: Its Peptide release rate is 6.1%.

Question: What about the Peptide release rate ([10]; pH 7.4) of the same substance?
Answer: Its Peptide release rate is 0%.
